Patent US20100068186A1 (published 2010)

T1: catalytic sub-unit of the Telomerase protein peptide on HLA-A*02:01 (human)
T1 peptide: ILAKFLHWL

B1: TCR of SEQ ID NOs 15 and 23 (TCR, V domains shown)
Valpha: GIQVEQSPPDLILQEGANSTLRCNFSDSVNNLQWFHQNPWGQLINLFYIPSGTKQNGRLSATTVATERYSLLYISSSQTTDSGVYFCAVDSATTGMFGYIFGTGTRLKVLA
Vbeta: NAGVTQTPKFQVLKTGQSMTLQCAQDMNHEYMSWYRQDPGMGLRLIHYSVGAGITDQGEVPNGYNVSRSTTEDFPLRLLSAAPSQTSVYFCGIQPQGTEAFFGQGTRLTVV
B2: TCR of SEQ ID NOs 21 and 65 (TCR, V domains shown)
Valpha: GIQVEQSPPDLILQEGANSTLRCNFSDSVNNLQWFHQNPWGQLINLFYIPSGTKQNGRLSATTVATERYSLLYISSSQTTDSGVYFCAVDSATSGMFGYIFGTGTRLKVLA
Vbeta: NAGVTQTPKFQVLKTGQSMTLQCAQDMNHEYMSWYRQDPGMGLRLIHYSRWVGDTDQGEVPNGYNVSRSTTEDFPLRLLSAAPSQTSVYFCGVQPQGTEAFFGQGTRLTVV
B3: TCR of SEQ ID NOs 15 and 69 (TCR, V domains shown)
Valpha: GIQVEQSPPDLILQEGANSTLRCNFSDSVNNLQWFHQNPWGQLINLFYIPSGTKQNGRLSATTVATERYSLLYISSSQTTDSGVYFCAVDSATTGMFGYIFGTGTRLKVLA
Vbeta: NAGVTQTPKFQVLKTGQSMTLQCAQDMNHEYMSWYRQDPGMGLRLIHYSIWEFETDQGEVPNGYNVSRSTTEDFPLRLLSAAPSQTSVYFCGVQPQGTEAFFGQGTRLTVV
B4: TCR of SEQ ID NOs 15 and 66 (TCR, V domains shown)
Valpha: GIQVEQSPPDLILQEGANSTLRCNFSDSVNNLQWFHQNPWGQLINLFYIPSGTKQNGRLSATTVATERYSLLYISSSQTTDSGVYFCAVDSATTGMFGYIFGTGTRLKVLA
Vbeta: NAGVTQTPKFQVLKTGQSMTLQCAQDMNHEYMSWYRQDPGMGLRLIHYSRWVGDTDQGEVPNGYNVSRSTTEDFPLRLLSAAPSQTSVYFCGIQPQGTEAFFGQGTRLTVV
B5: TCR of SEQ ID NOs 15 and 70 (TCR, V domains shown)
Valpha: GIQVEQSPPDLILQEGANSTLRCNFSDSVNNLQWFHQNPWGQLINLFYIPSGTKQNGRLSATTVATERYSLLYISSSQTTDSGVYFCAVDSATTGMFGYIFGTGTRLKVLA
Vbeta: NAGVTQTPKFQVLKTGQSMTLQCAQDMNHEYMSWYRQDPGMGLRLIHYSICWGCTDQGEVPNGYNVSRSTTEDFPLRLLSAAPSQTSVYFCGVQPQGTEAFFGQGTRLTVV
B6: TCR of SEQ ID NOs 15 and 68 (TCR, V domains shown)
Valpha: GIQVEQSPPDLILQEGANSTLRCNFSDSVNNLQWFHQNPWGQLINLFYIPSGTKQNGRLSATTVATERYSLLYISSSQTTDSGVYFCAVDSATTGMFGYIFGTGTRLKVLA
Vbeta: NAGVTQTPKFQVLKTGQSMTLQCAQDMNHEYMSWYRQDPGMGLRLIHYSIWEFETDQGEVPNGYNVSRSTTEDFPLRLLSAAPSQTSVYFCGIQPQGTEAFFGQGTRLTVV

Target: T1, catalytic sub-unit of the Telomerase …
Test: Kd or kinetics

Binding result, recognises:
B1, B2, B3, B4, B5, B6
